Measurements from article PMC10215022.

Key:
[1] = molecular target: SARS-CoV-2 Omicron BA.5 spike protein, plate-bound (MSD V-PLEX) (SARS-CoV-2 Omicron BA.5)
[2] = molecular target: SARS-CoV-2 Wuhan (WT) spike protein RBD, His-tagged (SARS-CoV-2 Wuhan (WT)) (UniProt P0DTC2); test: SPR

Row | Substance | IC50 [1] [nM] | Kd [2] [nM] | koff [2] [s⁻¹] | kon [2] [M⁻¹ s⁻¹]
1 | REGEN-COV mAb cocktail (casirivimab and imdevimab at 1:1 molar ratio) | 5.2 |  |  | 
2 | decavalent IgM ACE2 decoy (from UniProt Q9BYF1;P01591) (Fc fusion) |  | 0.097 | 3.5e-05 | 380000
